Measurements taken from the supplement of paper PMC7877785.
± gives the uncertainty stated by the source.

Experiment: self-splicing fitness, log relative to wild type (ln ratio); higher = more splicing; Tetrahymena group I intron in knt gene, E. coli kanamycin selection, DiMSum; sequences stand for … in CUCUCU…GGAGGGAAAAGUUAUCAGGCAUGCACCUGGUAGCUAGUCUUUAAACCAAUAGAUUGCAUCGGUUUAAAAGGCAAGACCGUCAAAUUGCGGGAAAGGGGUCAACAGCCGUUCAGUACCAAGUCUCAGGGGAAACUUUGAGAUGGCCUUGCAAAGGGUAUGGUAAUAAGCUGACGGACAUGGUCCUAACCACGCAGCCAAGUCCUAAGUCAACAGAUCUUCUGUUGAUAUGGAUGCAGUUCACAGACUAAAUGUCGGUCGGGGAAGAUGUAUUCUUCUCAUAAGAUAUAGUCGGACCUCUCCUUAAUGGGAGCUAGCGGAUGAAGUGAUGCAACACUGGAGCCGCUGGGAACUAAUUUGUAUGCGAAAGUAUAUUGAUUAGUUUUGGAGUACUCGUGGUCG
Method in brief: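 Six replicate transformations of E. coli BL21(DE3) with a pET-22b(+) library were grown overnight at 37°C or 30°C. The library randomised all eight P1ex-region intron nucleotides, the intron lying in the knt kanamycin-resistance gene, and plates were LB agar with or without 25 μg/mL kanamycin plus 100 μg/mL carbenicillin, 50 μM IPTG and 0.2% rhamnose. Pooled colonies were amplicon-sequenced on an Illumina HiSeq 2500, and fitness is the DiMSum error-weighted combination of wild-type-normalised replicate fold changes, kanamycin versus none.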

Sequence	self-splicing fitness (ln) (30 °C)	self-splicing fitness (ln) (37 °C)
AAGAAGCAAUAUUACGCGUG	-0.716 ± 0.073	-0.537 ± 0.093
AAGAAGCAAUAUUACGGAUA	-1.67 ± 0.1	-1.38 ± 0.12
AAGAAGCAAUAUUACGGCCG	-1.47 ± 0.12	-0.0374 ± 0.15
AAGAAGCAAUAUUACGUAAU	-1.89 ± 0.097	-1.2 ± 0.12
AAGAAGCAAUAUUACGUCUA	-0.234 ± 0.066	-0.565 ± 0.098
AAGAAGCAAUAUUACGUGAU	-1.96 ± 0.11	-2.09 ± 0.11
AAGAAGCAAUAUUACGUUCA	-0.746 ± 0.077	0.133 ± 0.099
AAGAAGCAAUAUUACGUUUA	-1.62 ± 0.074	-1.01 ± 0.077
AAGCAGCAAUAUUACGAAAC	-3.7 ± 0.4	-1.8 ± 0.38
AAGCAGCAAUAUUACGACAC	-1.25 ± 0.058	-0.831 ± 0.073
AAGCAGCAAUAUUACGACUU	-0.223 ± 0.074	-0.323 ± 0.086
AAGCAGCAAUAUUACGAGGA	-2.82 ± 0.22	-2.16 ± 0.18
AAGCAGCAAUAUUACGCAAA	-1.82 ± 0.14	-1.65 ± 0.13
AAGCAGCAAUAUUACGCAAG	-2.43 ± 0.19	-0.222 ± 0.098
AAGCAGCAAUAUUACGCUGC	-3.47 ± 0.13	-3.05 ± 0.18
AAGCAGCAAUAUUACGCUUC	-2.97 ± 0.18	-2.81 ± 0.26
AAGCAGCAAUAUUACGGGAG	-3.74 ± 0.16	-3.05 ± 0.23
AAGCAGCAAUAUUACGGUCC	-1.17 ± 0.1	-0.771 ± 0.17
AAGCAGCAAUAUUACGGUGC	-3.29 ± 0.15	-1.61 ± 0.14
AAGCAGCAAUAUUACGGUUG	-3.08 ± 0.14	-2.01 ± 0.15
AAGCAGCAAUAUUACGUGCC	-1.23 ± 0.11	-1.47 ± 0.12
AAGCAGCAAUAUUACGUGGC	-4.15 ± 0.39	-1.92 ± 0.2
AAGGAGCAAUAUUACGACCA		-1.82 ± 0.31
AAGGAGCAAUAUUACGACGU	-1.88 ± 0.13	-0.122 ± 0.14
AAGGAGCAAUAUUACGAUUC	-1.13 ± 0.19	-1.78 ± 0.48
AAGGAGCAAUAUUACGAUUG	-3.8 ± 0.32	-0.948 ± 0.15

Sequence	self-splicing fitness (ln) (30 °C)	self-splicing fitness (ln) (37 °C)
AAGGAGCAAUAUUACGCCCU	-1.87 ± 0.35	-1.91 ± 0.43
AAGGAGCAAUAUUACGCGGA	-2.07 ± 0.13	-2.71 ± 0.2
AAGGAGCAAUAUUACGGAGA	-3.62 ± 0.31	-2.35 ± 0.27
AAGGAGCAAUAUUACGGCUG	-2.21 ± 0.23	-1.37 ± 0.27
AAGGAGCAAUAUUACGGGAU	-4.25 ± 0.29	-3.56 ± 0.36
AAGGAGCAAUAUUACGGUUU	-2.45 ± 0.12	-1.07 ± 0.11
AAGGAGCAAUAUUACGUAUG	-3.31 ± 0.34	-3.58 ± 0.33
AAGGAGCAAUAUUACGUCAA	-1.97 ± 0.22	-2.96 ± 0.4
AAGGAGCAAUAUUACGUCUC	-2.84 ± 0.48	
AAGGAGCAAUAUUACGUGAU	-2.78 ± 0.18	-2.45 ± 0.3
AAGGAGCAAUAUUACGUGUG	-3.39 ± 0.17	-0.957 ± 0.15
AAGGAGCAAUAUUACGUUCA	-1.44 ± 0.077	-0.0364 ± 0.088
AAGGAGCAAUAUUACGUUUG	-3.57 ± 0.42	-2.82 ± 0.23
AAGUAGCAAUAUUACGAAUG	-3.14 ± 0.24	-1.72 ± 0.14
AAGUAGCAAUAUUACGACUG	0.323 ± 0.082	-0.593 ± 0.11
AAGUAGCAAUAUUACGAGCU	-0.679 ± 0.057	-0.289 ± 0.087
AAGUAGCAAUAUUACGAUAU	-1.21 ± 0.066	-0.506 ± 0.084
AAGUAGCAAUAUUACGCAUG	-2.05 ± 0.069	-0.492 ± 0.074
AAGUAGCAAUAUUACGCCUU	-1.39 ± 0.12	-1.01 ± 0.19
AAGUAGCAAUAUUACGCGGG	-2.89 ± 0.19	-2.84 ± 0.2
AAGUAGCAAUAUUACGCUAA	-1.81 ± 0.14	-0.343 ± 0.15
AAGUAGCAAUAUUACGCUCG	-0.592 ± 0.13	-0.234 ± 0.17
AAGUAGCAAUAUUACGCUUU	-3.18 ± 0.24	-3.19 ± 0.47
AAGUAGCAAUAUUACGGACG	-2.73 ± 0.18	-1.74 ± 0.2
AAGUAGCAAUAUUACGGAGG	-3.89 ± 0.33	-2.5 ± 0.33
AAGUAGCAAUAUUACGGCAG	-2.54 ± 0.18	-1.77 ± 0.18

Sequence	self-splicing fitness (ln) (30 °C)	self-splicing fitness (ln) (37 °C)
AAGUAGCAAUAUUACGGCUG	-0.444 ± 0.083	-0.731 ± 0.13
AAGUAGCAAUAUUACGGCUU	-1.4 ± 0.12	-0.634 ± 0.14
AAGUAGCAAUAUUACGGUGG	-3.62 ± 0.22	-2.85 ± 0.26
AAGUAGCAAUAUUACGGUUC	-2.75 ± 0.19	-2.08 ± 0.23
AAGUAGCAAUAUUACGUCCA	-0.464 ± 0.18	-0.521 ± 0.17
AAGUAGCAAUAUUACGUCGC	-2.54 ± 0.25	-1.8 ± 0.23
AAGUAGCAAUAUUACGUGUA	-1.98 ± 0.13	-1.41 ± 0.14
AAGUAGCAAUAUUACGUGUU	-2.27 ± 0.093	-1.2 ± 0.095
AAGUAGCAAUAUUACGUUUA	-1.63 ± 0.13	-0.835 ± 0.11
AAUAAGCAAUAUUACGAAAA	-2.98 ± 0.28	-1.76 ± 0.2
AAUAAGCAAUAUUACGAAAU	-2.34 ± 0.14	-1.4 ± 0.15
AAUAAGCAAUAUUACGAAUU	-1.93 ± 0.1	-1.58 ± 0.12
AAUAAGCAAUAUUACGACAG	-1.64 ± 0.13	-0.432 ± 0.14
AAUAAGCAAUAUUACGACCC	-0.924 ± 0.12	0.479 ± 0.17
AAUAAGCAAUAUUACGACUC	0.0667 ± 0.14	0.341 ± 0.2
AAUAAGCAAUAUUACGAGAU	-3.82 ± 0.2	-2.24 ± 0.21
AAUAAGCAAUAUUACGCACU	0.285 ± 0.075	-0.118 ± 0.082
AAUAAGCAAUAUUACGCCGG	-1.87 ± 0.13	-1.07 ± 0.18
AAUAAGCAAUAUUACGCGCA	-0.438 ± 0.081	-0.0417 ± 0.11
AAUAAGCAAUAUUACGCGGC	-2.74 ± 0.24	-2.03 ± 0.33
AAUAAGCAAUAUUACGCUUC	-3.51 ± 0.23	-2.59 ± 0.23
AAUAAGCAAUAUUACGGCCC	-0.731 ± 0.17	0.533 ± 0.27
AAUAAGCAAUAUUACGGCGU	0.428 ± 0.082	0.242 ± 0.1
AAUAAGCAAUAUUACGGCUG	-0.2 ± 0.085	0.42 ± 0.1
